Experimental data: PMC6541444 (Science translational medicine, 2019)

Target: T1, recombinant mouse IL-2Ra (Sino Biological) (mouse, UniProt P01590 22-236)
T1 sequence (looked up): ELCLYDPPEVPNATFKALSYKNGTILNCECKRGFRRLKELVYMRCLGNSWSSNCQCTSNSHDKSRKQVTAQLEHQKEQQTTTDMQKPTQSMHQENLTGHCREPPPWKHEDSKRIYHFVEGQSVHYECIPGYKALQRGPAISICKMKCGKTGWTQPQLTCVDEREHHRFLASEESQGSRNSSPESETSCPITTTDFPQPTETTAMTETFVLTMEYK
Assay: ELISA

B1: mouse IL-2 (recombinant, unmodified) (ligand, UniProt P04351 21-169, looked up)
chain: APTSSSTSSSTAEAQQQQQQQQQQQQHLEQLLMDLQELLSRMENYRNLKLPRMLTFKFYLPKQATELKDLQCLEDELGPLRHVLDLTQSKSFQLEDAENFISNIRVTVVKLKGSDNTFECQFDDESATVVDFLRRWIAFCQSIISTSPQ
binding result: binds
